Changes are numbered by the printed parent chain.

From patent US20250382355A1 come the findings set out here.

B1: 1A11 VHH-Fc (Fc fusion)
chain: QVQLVESGGGLVQAGGSLRLSCEVSGSIYSINSMGWYRQAPGKQRELVAGIVSDGRINYADSVKGRFTISRAKNTVYLQMNSLKPEDTAVYYCAADRAFVYAGDYDYLGQGTQVTVSS
B2: 3D4 VHH-Fc (Fc fusion)
chain: QVQLVESGGGLVQPGGSLRLSCAASGFTLDLNSIGWFRQAPGKEREGVSCISPSGSRMHYADSVKGRFTISRDNAKNTVYLQMNSLKPEDTAVYYCATGSPSYHYCSMYGLEYDSWGQGTQVTVPS
B3: 19C10 VHH-Fc (Fc fusion)
chain: B2 chain with G55A, R57S, M58T, S100T, S115D, P125S
B4: 7A9 VHH-Fc (Fc fusion)
chain: QVQLVESGGGLVQAGGSLRLSCSASGGTASRSAMGWFRQAPGKEREFVAGISRRNSGSTYVADSYEDSVKGRFTISRDNAKNTIYLQMNSLKPEDTAVYYCAAEPTLGWYVPRRSVEYEYWGQGTQVTVSS
B5: 11F8 VHH-Fc (Fc fusion)
chain: QVQLVESGGGLVQAGGSLRLSCAASGRTVGYYAVGWFRQAPGKERDFVAAISWSGRNTNYADSVTGRFTIFRDNAKNTVDLQMNSLKPEDTAVYYCAADYWNYGSGSEVPNNYDTWGQGTQVTVSS
B6: 15H1 VHH-Fc (Fc fusion)
chain: QVQLVESGGGLAQAGGSLRLSCASSGLIFSGSAMGWFRQAPGKEREFVGVISWNGRTTYADSVKGRFTISRDDAVNMVWLQMNNLKPEDTAVYYCAADHLNYGSGDVNPRTYDYWGQGTQVTVSS
B7: 5A6 VHH-Fc (Fc fusion)
chain: QVQLVESGGGLAQAGGSLRLSCATSGLTFSMSAMGWFRQAPGNEREFVGVINWNGGSSRYADSVRGRFTISRDNAKNTVYLQMNSLKPEDTGVYYCAADALNIGTGEVNPRLYDYWGQGTQVMVSS
B8: 19E10 VHH-Fc (Fc fusion)
chain: QVQLVESGGGLVQPGGSLRLSCVASGSTISINSMGWYRQAPGKAREMVATITNDGPIKYADPVKGRFTISRDNPKNTVYLQMNSLKPEDTAVYYCVADRAYWLAGEWEYWGQGTQVTVSS
B9: 5D7 VHH-Fc (Fc fusion)
chain: QVQLVESGGGLVQAGGSLRLSCAASGRTGSRYIMGWFRQAPGKEREFVAAINWRGDSTYYADSVKGRFTIARDNAKNTAYLQMNSLKPEDTAVYYCVADRGESYYYTRSTEYTYWGQGTQVTVSS
B10: 8E9 VHH-Fc (Fc fusion)
chain: QVQLVESGGGLVEAGGSLRLSCVASGSSSSINAMGWYRQAPGKQRELVASISHDGETKYANSVKGRFTISRGNAKNTIYLQMNSLKPEDTAVYYCVGDVAWVVVAGEYDYWGQGTQVTVSS
B11: 9B2 VHH-Fc (Fc fusion)
chain: QVQLVESGGGLVQPGGSLRLSCAASGFTLDNYAIGWFRQAPGKEREGVSCISSSDGDTQYADSVKGRFTISRDNAKNTVYLQMNSLKPEDTAVYYCAVEKVYARSWFFHLCSELDFGSWGQGTQVTVSS
B12: 13C8 VHH-Fc (Fc fusion)
chain: QVQLVESGGGLVQAGGSLRLSCAASGRTVNKYMTGWFRQTPGKEREFVASIDWSSTTTHYANSVKGRFTISRDKVKNTVYLQMNGLKPEDTAVYYCAAHQDSSYGYTILPIDYDSWGQGTQVTVSS
B13: 15H7 VHH-Fc (Fc fusion)
chain: QVQLVESGGRLVQAGGSLRLSCAAPGRTFRNLTLGWFRQAPGKEREFVASTSWPDDEMTYYTDSVKGRFTISRDNAKNTVYLQMNSLKPEDTAVYYCAAASWSGRSTLSYDYDYWGQGTQVTVST
B14: 19B8 VHH-Fc (Fc fusion)
chain: QVQLVESGGGLVQAGGSLRLSCAASGRTFTNYAMGWFRQAPGKEREFVAAISWSGGGTNYADSVKGRFTISRDNAKNTVYLQMNSPKPEDTAVYYCATTLGYYGSSSRLYEYWGQGTQVTVSS
B15: 10B8 VHH-Fc (Fc fusion)
chain: QVQLVESGGGLVQPGGSLRLSCAASGITLDYYAIAWFRQAPGKEREGVSCFCSSDGDIRYADSVKGRFTISRDNAKNTVYLQMNSLKPEDTAVYYCATERVYSSTWFFHRYSELDFGSWGRGTQVTVSS
B16: 1E4 VHH-Fc (Fc fusion)
chain: QVLLVESGGGLVQAGGLLRLACSASGRTFTENVMGWFRQAPGKEREFVAAINWNTGSTYYSDSRKGRFTISKDNAKNTMFLQINNLKPEDTAVYYCGGTSSSYYYIGEFIPDYWGQGTQVTVSS

For this assay, the target named is SARS-CoV-2 WT spike on rVSV-deltaG-Luc pseudovirus (SARS-CoV-2), P0DTC2. Briefly: cell-based or functional assay.
Consider B1, for which the pseudovirus neutralization IC50 came out at 0.57 nM.

Molecule B2 had a pseudovirus neutralization IC50 of 1.22 nM.

On to B3, for which the pseudovirus neutralization IC50 was found to be 1.49 nM.

B4 registered a pseudovirus neutralization IC50 of 110 nM.

The molecule B5 showed a pseudovirus neutralization IC50 of 1.07 nM.

B6 registered a pseudovirus neutralization IC50 of 5.04 nM.

B7 yielded a pseudovirus neutralization IC50 of 8.57 nM.

Molecule B8 displayed a pseudovirus neutralization IC50 of 1.53 nM.

For the molecule B9, the pseudovirus neutralization IC50 worked out at 6.52 nM.

B10 gave a pseudovirus neutralization IC50 of 12.4 nM.

For the molecule B11, the pseudovirus neutralization IC50 amounted to 1.93 nM.

As for B12, the pseudovirus neutralization IC50 is 6.69 nM.

Consider B13, for which the pseudovirus neutralization IC50 worked out at 1.33 nM.

B14 had a pseudovirus neutralization IC50 of 53.5 nM.

In turn, B15 came in with a pseudovirus neutralization IC50 of 0.68 nM.

In turn, B16 registered a pseudovirus neutralization IC50 of 0.31 nM.
